From the DeepSol protein solubility set come the findings set out here.

The series in a line: soluble on expression in E. coli; label from the status in PepcDB or PDB records.
Turning to “MKYQAAIFDMDGLLLDTERVCMRIFQEACEVQNLPFYEDVYLSIIGRNAAGIETIFRKAYGENLDRLHLEWRTRYNAVVKHQAIP”, the “soluble on expression in E. coli” value is reported as “not soluble”.

As to “MGSDKIHHHHHHMNLSRVGKHGTGMWNYSKNIADMLHESGFLDSIICSKDHVEYFSNRYKDPKVDIIITPEIVSNTMKVSKFRPLIWLSYSYFLGCKLVLSKKKKDVALLSTTHHSIPFFKNQFITIHDLRPAFYPDSKLQEIYFSHYLPRKVKELRGVFTVSETVKNEIEEHMGVARSDIQVVYNSVDPSLRPDGTDNSEQATIKNTFLMVGASWKHKNAHSFLKNFLAYHKDNYSAVIVCGQTDYFDELKSLVATLGLENNVTFKHHISEQELSSLYKTSFALVYPSLSEGFGIPPIEAMSLSLPVIVSDIPVFKEILGEAAVYVDPNVRESWEHAVDTLKVSRENVIDTGLQRVNLYSYERCKDMLMLALNNINEKSR”, the “soluble on expression in E. coli” value is given as “not soluble”. The entry for “MAHHHHHHMSQLYRGRSYQNILRKLPRNLVVFDGHCLMCQARVRHVLERNFSYFSFIRIMQGVDPVKLEANKMLFCSFDSVEWREVRRNFPHLLNDADGVVLIEKVPSKTASFLSRVRQGQKQRRQQGRTGGMNSSEEKRGLKNFFQTNNFSFPLASSSVTTPRGLAGGFDGVEEDVDIVVSVKYEAVCRIGMKLDRWLLRTLFRCLYYMLPRWMGDRWYDYILRRRQLWGTSEEDAVRYPKRVPGLKERTWKL” is “not soluble”.

“MGSDKIHHHHHHMNLLKIIDDLQLEKIDQEEFLKPALRRGLFKKASDFSLKAALTSLPFALFAMPRIVQASTQANTQSVTDTLNYALTLEYLEEAFYVQGLAKSGLIDSADMTIFNQIKKHESAHVVFLKNVLGSAANPSPAFDFGTAFDSYANFLATAQALEDTGVRAYKGQAGNLITNKVALTAALQIHSVEARHASEVRRLRMLNGWIGVGEAGATYGAGEDANFPAESNLTQGGVDLSILASADVTMTNIAEAFDEPLDKNTVFGIAQGFIVS”: the “soluble on expression in E. coli” value is “not soluble”. To “MRDYATTAAGFDLQRTAAATLSGTLQALNACVECCDRHALPGRIALFWEGKDGSRASYTFSELKALSGRFANFLQAQGVRPGDCVAGLLPRTPELLVTILGAWRLGAVYQPLFTAFGPKAIEHRVATAGSKVLVTDAANRDKLDELADPPLAVTVGGPKGQGIRRGDFSFWAELERYPAEFEPVPRSGEDPFLMMFTSGTTGLAKPVPVPLKAILAFVGYLREAVDLRPEDAFWNLADPGWAYGLYYAVAGPLAMGHPTTFYEGPFSVESTCRIIRDYGITNLAGSPTAYRLLMAAGAAAETALKGRLRAVSSAGEPLTPEVIRWFADRLGTTIHDHYGQTELGMVLCNHHALAHPVRVGAAGFACPGHRVVVLDDDLNELPPGQPGILALDRRRSPLMWFPGYQGLETAAFVGDYYLSGDTVELNEDGSISFVGRADDVITTSGYRVGPFDVESALIEHPAVMEAAVIGKPDPERTELVKAFVVLCAGHRPTPELADALQRYVRQRLSAHAYPREIEFLEELPKTPSGKIQRFLLRNQEIARQREAAPRAAAAN” belongs “not soluble”; to “MNIDLNADLGEGCASDSELLTLVSSANIACGFHAGDAQTMLTCVREALKNGVAIGAHPSFPDRDNFGRTAMVLPPETVYAQTLYQIGALGAIVQAQGGVMRHVKPHGMLYNQAAKDPHLAQAIAKAVHDYDPSLILVGLAGSELIRAGERHRLVTRQEVFADRGYQADGSLVPRMQPGALIHDEEQALAQTLDMVQAGRVKSVTGVWTTVTAQTVCIHGDGEYALAFARRLRAAFNARNIHVIALEHHHHHH”, “soluble”; to “RPVWYGEPVDIQPEHRDMMLVVDLSGSMAEEDMKTSNGDFVDRLTAVKQVVSDFIDQRKGDRLGLVLFGDHAYLQTPLTFDRNTVREQLDRTVLNLVGQRTAIGEGLGLATKTFIESNAPQRTIILLSDGANTAGVLEPLEAAQLAKDNHAKIYTVGIGAGEMQVRGFFGKQTVNTARDLDEDTLTKIATMTGGQYFRARNADELAEIYQTI”, “not soluble”. As to “MGSDKIHHHHHHMTNPISLKDPLKLPCGAVIKNRLIKSAMSDSLADGEGNATNLQARLYERWAKSGLGLSVIGEVQVDPRFPEKPGNLVLADGMDLAALRELTSRAAINGAHIWPQLSHAGGLSHLPISQPKGPSALNISQFQCAGMSIDEIYQLPDMYAKSAMLAKDVGFTGVQIHAGHGFLLSQFLSPLFNHRQDQYGGSIEARCRIIVEIIAKVRSAVGDSFPIGIKINSTDQLEGGLTQEDALAAIRILDQTSLDLIEISGGSYFPGAKSSSDSSTKGPYFAEFAATAKRLSNVPIAVTGGFKTYAQALKVIESGAVDFVGLARALVITPELAKDWLIGTATAPSFPRFKAPPQGGITAWFTMLLTAIANDSEESFELELLPALHLYEELDDARCDKWMQKFEIK”, the “soluble on expression in E. coli” value is given as “not soluble”. To “MKVMIEKILLVQTLKRLPRMGWLIKGVQEPESIADHSFGVAFITLVLADVLEKRGKRIDVEKALKMAIVHDLAEAIITDIPLSAQEFVDKDKAEALVFKKVFPEFYELYREYQECSSPEAQLVRIADKLDMILQAYQYELSGNKNLDEFWEAIEEIKRLELSKYLEDILNSVGRLKA” belongs “soluble”; to “MQQPVINQQPGYNPQGMNPVQQFEMHQQQHQQAITTQPGVFVQPAPGSVWMPMPPAIQGVPTGLEYLTYLDTIMVHQIKELIEIVTDWETKNKYVLKNANGEQCYYAFEESGCCERQCCGPQRGFVMHIVDNFKREVLTIKREFKCCGGGCCGCLACIGCCQQECIIETPSMGVLGIIRQRCGCMSSNYDIMDGDGNVIFQIDGPCCCMLCGCQDKEFPIKTANNGTVVGAITKKWGGCFREAFTDADTFAVNFPGDLDVKLKGVLIGATFLIDFMEFEQQSQNRNNGGAYYSSS”, “not soluble”. The entry for “TCPAACHCPLEAPKCAPGVGLVRDGCGCCKVCAKQLNEDCSKTQPCDHTKGLECNFGASSTALKGICRAQSEGRPCEYNSRIYQNGESFQPNCKHQCTCIDGAVGCIPLCPQELSLPNLGCPNPRLVKVTGQCCEEWVCDEDSIKDPMEDQDGLLGKELGFDASEVELTRNNELIAVGKGSSLKRLPVFGMEPRILYNPLQGQKCIVQTTSWSQCSKTCGTGISTRVTNDNPECRLVKETRICEVRPCGQPVYSSLKKGKKCSKTKKSPEPVRFTYAGCLSVKKYRPKYCGSCVDGRCCTPQLTRTVKMRFRCEDGETFSKNVMMIQSCKCNYNCPHANEAAFPFYRLFNDIHKFRD” is “soluble”. The entry for “MSLAKIVNVRPVLLSTPYGFEGCAENALHLPNGIRGCSMVEITLDNGVKGLGEGYLGVFAPDVFTSIARLVGTAITGDDISNGYGAVLAKAKTVTAYWSLQGAAQHVISAIEIALVDALSRVREIPAVELFGGKKVESIAMYGSGGDSLHPQYMAQELEQLAQRGIQTIKIRARHHQAAKTIWTIEAGRQYGIRVAVDMTQNLSIEGQTAEQVQAFCDLIQRETGEELVFVEECLGLDKLTQLPLLALQEGIAVAGGEIVTTKEELFDRIDANYYNVVQPDASVLGGIGDTIAVCEYAKQRSVNPVVHSWGGPVAMMANYVAAFATGCSLIEYPMPHFELRNVMCNLESRIHDGHFHLGDDIGLGVTLTDDIEGQFPHTNDALYHCFPMEDGLQQLEDSHRHWVKAEGHHHHHH” is “soluble”; for “MGSDKIHHHHHHMLAFAARTVVKPLGLLKPSSLMKVSGRFKAHQDALPRLPVPPLQQSLDYYLKALQPIVSEEEWAHTKQLVDEFQTSGGVGERLQKGLERRAKKMENWLSEWWLKTAYLQFRQPVVIYSSPGVILPKQDFVDLQGQLRFAAKLIEGVLDFKSMIDNETLPVEFLGGQPLCMNQYYQILSSCRVPGPKQDSVVNFLKSKRPPTHITVVHNYQFFELDVYHSDGTPLTSDQIFVQLEKIWNSSLQSNKEPVGILTSNHRNTWAKAYNNLIKDKVNRESVNSIQKSIFTVCLDKQVPRVSDDVYRNHVAGQMLHGGGSKFNSGNRWFDKTLQFIVAEDGSCGMVYEHAAAEGPPIVALVDHVMEYTKKPELVRSPMVPLPMPKKLRFNITPEIKNDIEKAKQNLSIMIQDLDIMMLTFHHFGKDFPKSEKLSPDAFIQVALQLAYYRIYGQACATYESASLRMFHLGRTDTIRSASIDSLAFVKGMGDSTVPEQQKVELLRKAVQAHRAYTDRAIRGEAFDRHLLGLKLQAIEDLVSMPDIFMDTSYAIAMHFNLSTSQVPAKTDCVMFFGPVVPDGYGICYNPMEAHINFSVSAYNSCAETNAARMAHYLEKALLDMRTLLQNHPRAKL” it is “not soluble”. For the sequence “MGNAAAYQRYRRPDCATEIDFSTENHSGREKIMSESLSWMQTGDTLALSGELDQDVLLPLWEMREEAVKGITCIDLSRVSRVDTGGLALLLHLIDLAKKQGNNVTLQGVNDKVYTLAKLYNLPADVLPR”, the “soluble on expression in E. coli” value was “not soluble”. As for “MLKKTLAALALGSALFTAGQAMAADYKIDKEGQHAFIEFRIKHLGYSWLYGRFNDFDGSFTFDEKNPSADKVKVTINTNSVDTNHAERDKHLRSGDFLNVSKNPTATFESTEVKANGDSADITGNLTLNGVTKPVTIKAKLIGQGDDPWGGYRAGFEGSATLKLKDFGIKMDLGPASQEVELLLSVEGIRQ”, the “soluble on expression in E. coli” value is “not soluble”. The entry for “MRFYNREKELARLMEIATLSEESAHLAVITGRRRVGKTELIRKFAEGRDDFLYFFVSKKKPRVLLDEFRDLLAARVPLLASASFGSFDDFFRALFEITKERPLFIVFDEFQNFQQVDPAVFSTLQDLWDRNKGTIKGTIVCIGSVQTLMREIFEGAKEPLFGRVTARLYVEPLIPDVVATILADHQVDAVRHLPFFFTLFGGIPKYYFLLDRYRLFGKTPAEIIRKFFCETDALLQNEGKDLLVEEFGKNYHLYFSILQVIAGGENQMARIADKSGINVNSISKYLDELTSYYQVIERRLPVTATRQEQKTGRYYLKDPLLRFWFRYIYRNQSLIEIGDEEGLLGKIQADLSTFMGWSFEELIRAMLLKRNDGTVVPFGFTRIGGFWTKRGDVEIDIVALNEEDGAIFFGECKLSGSRFSVADARRLKEKAKAVPWRTGDRREHFVLFCMDDLESDAEQALAAEGVGVVRLRQLLSVPLEHHHHHH” is “not soluble”; for “MPIEATMSTSNESANLLVPSFLPRGEVLGWNLTSVVNPVTRRKEYTYTVCVQTVGAFQCTEQAGVVLVKCDGPCGNKLPTNHLIALGKCDHMLCKACFGIVKNPDGSYGCSNFYCWSEPRGNFRKEKANYNKVINKQICRARKFKQDGEDLQACSKSNLPKTPADLSDREMNSAKSSESDTSSSDGSSYQSTVDSYGLPKRF” it is “not soluble”; for “MIDKSGYRANVAIVLLNKQNRVFWGQRRNRTSWQFPQGGVATGETPLQAMYRELHEEIGLRPQDVEVIASTRDWYKYDIPDSLVRTKEPICIGQKQKWFLLKLKSPESYIDLDANDSPEFDNWRWVSYWYPINHVVYFKQEVYRKALTYFKEYIA” it is “not soluble”. To “MISIFDIFKIGIGPSSSHTVGPMKAAAAFAAGLDAQAVRIVIDIYGSLALTGYGHGTFDALMLGLEGSLPHDIPLAGIPERLERIRTQHILRLNGQEIRFIPDRDLNILGNQVLPKHPNSLRFTAYASDGTVLNEQVYYSVGGGFVVTEEDFDR” belongs “not soluble”; to “MGSDKIHHHHHHMNKEAIESLLIHVIGTDVIVNEVRPIGGGNTSRAFAVKSSQGNFFIKTNRAGLVDMFEKEVKNLELLRKVLPSNTPEVVGYGTIDHVSYFILKLIEPGRRVADFWSDFGRTLSELHRVTGNTFGLEYDNYIGSLPQSNKQNSNWVDFFVNERIWPQAKKAEKVLGTEIVGMISKLSDRLPDLLTQSRPTLLHGDLWSGNFTLNQAGTVCLVDPATYYGNREIEIAFTKLFGGFEDEFYAAYSEVLPLDKGFFDTRADIYNLYPLLVHVNLFGGWYVASVRETLKRFV”, “not soluble”.
